Measurements as given in article PMC2854129, “Spadin, a Sortilin-Derived Peptide, Targeting Rodent TREK-1 Channels: A New Concept in the Antidepressant Drug Design” (PLoS Biology, 2010).
Where no end group is shown, it is not given here. The star is where a group is joined. 125I = radioactive iodine label on Tyr, [125I]*

Legend:
TREK-1 channel = test: Whole-cell patch-clamp, hippocampal CA3 pyramidal neurons in brain slices, wild-type mice; assay type: cell-based, mouse; details: 12 out of 28 recorded neurons; K+ blockers; aa 10 µM; mean ± SEM, n = 12
TREK-1 [1] = test: Whole-cell patch-clamp, cultured hippocampal pyramidal neurons; assay type: cell-based, mouse; details: 10 µM aa, K+ blockers, 7 out of 70 recorded neurons, at −50 mV
Procedure: Cortical neurons were prepared from 14 old mouse embryos, whereas hippocampal neurons were prepared from newborn mice. Briefly, dissected brain areas were dissociated and neurons were plated on polylysine-treated 35 or 60 mm dishes and maintained in culture in Neurobasal medium supplemented with B27, Glutamax, and antibiotics for 2 to 3 wk before to be used for electrophysiological or biochemical experiments.
Supplementary file pbio.1000355.s004.tif: Figure S4 Effects of spadin on cultured pyramidal neurons from hippocampus. (A) Cultured pyramidal neuron from hippocampus, with on top, the patch-clamp pipette. Neurons were chosen according to their morphology. (B) Current recorded in response to ramps of potential obtained in the various conditions indicated (aa, arachidonic acid: 10 µM; Spadin: 1 µM; Fluoxetine: 20 µM). Neurons were recorded in the whole-cell configuration of the patch-clamp technique. In voltage-clamp, ramps of potential from −90 mV to 70 mV were applied every 10 s. The % variation of the current amplitude was always measured at −50 mV. The currents were recorded in response to such ramps in control conditions and in the presence of a cocktail of potassium blockers suitable to isolate the TREK currents (10 mM tetraethyl ammonium (TEA), 3 mM 4-aminopyridine (4-AP), 50 nM charybdotoxin, 10 µM glibenclamide, 100 nM apamin). […] The blocks were reversible. (C) Time course of spadin and fluoxetine effects. Applications are indicated by the horizontal bars. (2.03 MB TIF) Click here for additional data file.

TREK-1 [2] = biological target: T1, TREK-1 (Mus musculus, UniProt P97438); test: Whole-cell patch-clamp, TREK-1 transfected COS-7 cells; assay type: cell-based; parameters: GFP; expressed in transfected cells; host or cells: COS-7 cells, DEAE-dextran transfection; details: 10 µM aa
T1 sequence (P97438 1-426): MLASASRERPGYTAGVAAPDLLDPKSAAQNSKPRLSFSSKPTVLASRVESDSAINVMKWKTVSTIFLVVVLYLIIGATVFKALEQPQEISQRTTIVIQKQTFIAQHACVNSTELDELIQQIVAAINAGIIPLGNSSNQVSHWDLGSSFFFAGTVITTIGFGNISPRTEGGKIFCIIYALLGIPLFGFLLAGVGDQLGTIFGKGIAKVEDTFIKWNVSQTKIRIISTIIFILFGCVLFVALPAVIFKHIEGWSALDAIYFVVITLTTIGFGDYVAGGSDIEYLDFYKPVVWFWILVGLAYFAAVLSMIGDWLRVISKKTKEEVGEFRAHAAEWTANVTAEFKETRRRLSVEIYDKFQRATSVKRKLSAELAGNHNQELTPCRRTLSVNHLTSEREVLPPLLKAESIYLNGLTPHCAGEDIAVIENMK
Procedure: All electrophysiological experiments were done on COS-7 cells seeded at a density of 20,000 cells/35-mm dish 24 h before transfection. Cells were transfected by the classical DEAE-dextran method with TREK-1-GFP plasmids (0.1 µg/µL). Cells were visualized 48–72 h after transfection using fluorescence.
The whole-cell patch-clamp technique was used to evaluate TREK-1 potassium channel current by using a RK 400 patch-clamp amplifier (Axon Instruments, USA), as previously described. Currents were lowpass filtered at 3 kHz, digitized at 10 kHz using a 12-bit analog-to-digital converter. […] The bath solution contained (in mM) 150 NaCl, 5 KCl, 3 MgCl2, 1 CaCl2, and 10 HEPES, adjusted to pH 7.4 with NaOH; the patch pipette solution contained (in mM) 155 KCl, 3 MgCl2, 5 EGTA, and 10 HEPES, adjusted to pH 7.2 with KOH. Cells were clamped at −80 mV and voltage changes were either applied by ramp (from −100 to 50 mV, 1 s in duration) or by step (from −100 to 40 mV, 1.5 s in duration). Cells were continuously superfused with a microperfusion system. The pipette capacitance was not subtracted from total membrane capacitance and there was no leak subtraction. […]
Pclamp software was used to analyze currents recorded in the whole-cell mode measured at 0 mV. Results are expressed as means ± SD. […]

TREK-1 [3] = biological target: T1, TREK-1; test: Competition binding, 125I-spadin, TREK-1 transfected COS-7 cell homogenates; parameters: expressed in transfected cells; host or cells: COS-7 cells, DEAE-dextran transfection; details: 0.2 nM 125I-spadin; TREK-1 transfected COS-7 homogenates; Tris-HCl pH 7.4, 0.1% BSA; mean of duplicates from 2 to 5 independent experiments
Procedure: For competition experiments, homogenates from TREK-1 transfected COS-7 or C13NJ cells were incubated with 0.2 nM ^125I-spadin or ^125I-NT (200,000 cpm in 250 µl) iodinated and purified as previously described. Incubations were performed in 50 mM Tris-HCl, pH 7.4 containing 0.1% BSA in the presence of increasing concentrations of non-radioactive spadin or NT (10^−10 to 10^−5M). Incubations were terminated by addition of 2 ml of ice-cold binding buffer followed by filtration through cellulose acetate filters (Sartorius, Göttingen, Germany) and washing twice with 2 ml of ice-cold buffer. Radioactivity on filters was counted with a gamma-counter.

NTSR3/Sortilin = NTSR3/Sortilin (UniProt Q99523); details: cited from earlier work
Chain of NTSR3/Sortilin (Q99523 78-755): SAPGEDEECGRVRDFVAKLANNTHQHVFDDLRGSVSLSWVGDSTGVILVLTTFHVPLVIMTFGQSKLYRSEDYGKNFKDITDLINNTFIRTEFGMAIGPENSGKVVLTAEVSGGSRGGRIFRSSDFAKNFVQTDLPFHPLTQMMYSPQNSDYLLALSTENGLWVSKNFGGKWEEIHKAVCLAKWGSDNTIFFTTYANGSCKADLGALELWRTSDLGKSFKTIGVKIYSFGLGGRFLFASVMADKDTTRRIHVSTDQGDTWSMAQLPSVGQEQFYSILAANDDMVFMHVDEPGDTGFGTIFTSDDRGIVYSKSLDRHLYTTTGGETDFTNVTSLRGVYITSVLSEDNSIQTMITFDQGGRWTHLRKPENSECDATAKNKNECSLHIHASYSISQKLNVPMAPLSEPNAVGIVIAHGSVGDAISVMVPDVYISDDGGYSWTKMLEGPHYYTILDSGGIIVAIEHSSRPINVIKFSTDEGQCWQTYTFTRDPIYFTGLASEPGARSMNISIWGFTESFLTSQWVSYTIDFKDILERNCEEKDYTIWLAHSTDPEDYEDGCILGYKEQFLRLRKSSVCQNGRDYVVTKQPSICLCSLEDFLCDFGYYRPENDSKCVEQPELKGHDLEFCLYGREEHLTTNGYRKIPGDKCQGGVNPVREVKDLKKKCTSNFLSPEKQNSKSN

[4] = test system: non-transfected COS-7 cells; test: 125I-spadin binding to non-transfected COS-7 cells
TREK-1 [5] = biological target: T1, TREK-1; test: Association kinetics and internalization of 125I-spadin on whole COS-7 cells expressing TREK-1; assay type: cell-based; parameters: expressed in transfected cells; host or cells: COS-7 cells, DEAE-dextran transfection; details: 37°C; for intracellular (acid-NaCl wash resistant) fraction of total bound 125I-spadin: 30 min, acid-NaCl wash 2 min
Procedure: Cells, grown on 12 mm multiwell-dishes, were incubated with 0.2 nM ^125I-spadin for various times at 37°C in an Earle's Tris-Hepes buffer (cell binding buffer). Incubations were terminated by washing cells twice with the binding buffer or with the same buffer containing 0.5 M NaCl, pH 4, for 2 min to remove non-sequestrated radioactivity (acid-NaCl wash). Cells were harvested with 1 ml of 0.1 N NaOH and counted in a gamma-counter. Non-specific binding was determined in the presence of 10 µM unlabeled spadin.

[6] = biological target: TREK-1 channel (KCNK2), transfected in COS-7 cells (mouse) (UniProt P97438)
TREK-1 [7] = biological target: T2, TREK-1 (Mus musculus, UniProt P97438); test: radioligand binding
T2 chain: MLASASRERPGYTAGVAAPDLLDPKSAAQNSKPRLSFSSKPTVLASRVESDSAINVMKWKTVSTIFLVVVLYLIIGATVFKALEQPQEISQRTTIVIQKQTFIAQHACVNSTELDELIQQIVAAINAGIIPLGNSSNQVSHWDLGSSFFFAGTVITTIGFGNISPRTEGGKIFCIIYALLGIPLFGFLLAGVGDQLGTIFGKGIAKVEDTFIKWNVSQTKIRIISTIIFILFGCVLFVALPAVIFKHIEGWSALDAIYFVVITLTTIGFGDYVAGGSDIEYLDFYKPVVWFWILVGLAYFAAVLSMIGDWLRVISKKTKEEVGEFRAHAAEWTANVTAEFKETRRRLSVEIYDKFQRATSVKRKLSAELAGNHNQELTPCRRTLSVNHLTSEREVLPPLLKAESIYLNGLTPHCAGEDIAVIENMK

TREK-1 [8] = biological target: T2, TREK-1; test: radioligand competition

Chain of sortilin propeptide 1-44 (Q99523 34-77): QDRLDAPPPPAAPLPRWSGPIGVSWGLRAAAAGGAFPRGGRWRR

Q: For CCCCC/C=C\C/C=C\C/C=C\C/C=C\CCCC(=O)O [arachidonic acid], which “increase in amplitude of remaining current by arachidonic acid” value (TREK-1 channel) is on record?
A: 23.3%±4.8%

Q: What about the “increase of remaining current by arachidonic acid” value (TREK-1 [1]) of the same molecule?
A: about 50%

Q: And the “activation of TREK-1 basal channel activity” value (TREK-1 [2]; as previously described [21])?
A: strongly and reversibly activated

Q: What does the source list for “QDRLDAPPPPAAPLPR [Gln1-Arg16, N-terminal fragment of the full length propeptide]”?
A: affinity for TREK-1 (TREK-1 [3]): 1 µM; effect on aa-induced current increase (TREK-1 [2]; after 90 s of application, Figure S2): unable to inhibit the current increase

Q: For “sortilin propeptide 1-44 (from UniProt Q99523)”, which Kd (NTSR3/Sortilin) is on record?
A: 5 nM

Q: Which results are given for “^125I-spadin: monoiodinated spadin (on Tyr0), HPLC purified (Y(125I)APLPRWSGPIGVSWGLR)”?
A: 125I-spadin binding [4]: totally devoid of ^125I-Spadin binding; time to plateau of cell-associated radioactivity (TREK-1 [5]; 0.2 nM 125I-spadin, whole COS-7 cells expressing TREK-1): ≤ 30 min; intracellular (acid-NaCl wash resistant) fraction of total bound 125I-spadin (TREK-1 [5]): 80%; intracellular (acid-NaCl wash resistant) fraction of total bound 125I-spadin (TREK-1 [5]; listed as 125I-labelled spadin): about 80%

Q: With “full length propeptide of NTSR3/Sortilin (Gln1-Arg44)” as the molecule, how does the block of the arachidonic acid-stimulated TREK-1 current at 0 mV, whole-cell patch clamp, TREK-1 transfected COS-7 cells, 500 nM propeptide [6] read?
A: 41%

Q: For APLPRWSGPIGVSWGLR [spadin], which Kd (TREK-1 [7]) is on record?
A: ~10 nM

Q: Which Kd (TREK-1 [8]) does the source give for QDRLDAPPPPAAPLPR [propeptide N-terminal fragment Gln1-Arg16 1-16] here?
A: 1000 nM
